Our source for the Kd values is PMC2776984 (PLoS Genetics, 2009).

To fix the notation:
B2: rhGDF5 (recombinant human Growth & Differentiation Factor 5) (ligand)
chain: RQGKRPSKNLKARCSRKALHVNFKDMGWDDWIIAPLEYEAFHCEGLCEFPLRSHLEPTNHAVIQTLMNSMDPESTPPTCCVPTRLSPISILFIDSANNVVYKQYEDMVVESCGCR
notes: GDF5 (CDMP1), human, recombinant; also called CDMP1; wild-type GDF5; source: bought/supplied: Biopharm GmbH

What all share (experiment): SPR; BIA2000 system (Biacore); receptor ectodomains immobilised, GDF5 proteins as analyte; apparent KD; n = 6; as described in ref. 16
In experiment [1] the target is BMPR1Aecd (soluble ectodomain of rhBMPR1A) (human) (UniProt P36894).
The target in experiment [2] is BMPR1Becd (soluble ectodomain of rhBMPR1B) (human) (UniProt O00238).
The target in experiment [3] is B2. As to conditions: both partners purified.
Experiment [4] deals with T1, BMPR1Aecd (soluble ectodomain of rhBMPR1A) (human, UniProt P36894 24-152).
T1 construct: BMPR1A, BMP type I receptor, human (rh), extracellular domain; also called BMPR1A ectodomain
The following applies: both partners purified.

Chain of BMPR1Aecd (soluble ectodomain of rhBMPR1A) (human) (P36894 24-152): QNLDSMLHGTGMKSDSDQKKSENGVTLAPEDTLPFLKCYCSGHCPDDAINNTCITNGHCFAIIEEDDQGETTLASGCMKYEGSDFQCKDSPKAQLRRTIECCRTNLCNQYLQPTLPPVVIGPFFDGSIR
T1 sequence (P36894 24-152): as above

Consider “rhN445T GDF5 (from UniProt P43026 28-501) (ligand)”, for which the Kd in experiment [1] came to 19.5 nM; in experiment [2], 1.2 nM.

B1: BMPR1Becd (soluble ectodomain of rhBMPR1B) (receptor, human, UniProt O00238 14-126, looked up)
chain: KKEDGESTAPTPRPKVLRCKCHHHCPEDSVNNICSTDGYCFTMIEEDDSGLPVVTSGCLGLEGSDFQCRDTPIPHQRRSIECCTERNECNKDLHPTLPPLKNRDFVDGPIHHR
notes: BMPR1B, BMP type I receptor, human (rh), extracellular domain; also called BMPR1B ectodomain
Take B1: in experiment [3], the Kd was 1.1 ± 0.2 nM. In the case of B2, the Kd in experiment [4] was 17 ± 4.6 nM.
